Data: patent publication US9840539B2, “High affinity digoxigenin binding proteins” (UNIVERSITY OF WASHINGTON THROUGH ITS CENTER FOR …, priority 2013, dated 2017)
Entries after “also recorded” stand apart in the source; their conditions may differ. Read-outs that look alike come from different tables or passages of the source.

Experiments:
[1] = Fluorescence polarization equilibrium binding assay with purified protein; conditions: for affinity for DIG-PEG3-Alexa488 by fluorescence polarization (in words): purified protein in solution
Method: Proteins were expressed in E. coli Rosetta 2 (DE3) cells with a C-terminal TEV protease cleavable His6 tag for biochemical assays. For crystallographic analysis of DIG10 variants, a 12-amino acid structurally disordered C-terminus deriving from the scaffold protein 1z1s was replaced directly with a His6 tag. Binding affinities were determined by equilibrium fluorescence polarization^30 on a SpectraMax M5e microplate reader by monitoring the anisotropy of DIG-conjugated Alexa488 as a function of protein concentration. Equilibrium fluorescence polarization competition assays were performed by examining the effect of increasing concentrations of unlabeled DIG, digitoxigenin, progesterone, and β-estradiol on the anisotropy of designed protein-DIG-conjugated Alexa488 complex.
Fluorescence polarization binding assays. Fluorescence polarization-based affinity measurements of designs and their evolved variants were performed as described^46 using Alexa488-conjugated DIG (DIG-PEG3-Alexa488). Fluorescence anisotropy (r) was measured in 96-well plate format on a SpectraMax M5e microplate reader (Molecular Devices) with λex=485 nM and λem=538 nM using a 515 nm emission cutoff filter. Fluorescence polarization equilibrium competition binding assays were used to determine the binding affinities of DIG10.3 and its variants for unlabeled digoxigenin, digitoxigenin, progesterone, β-estradiol, and digoxin. The inhibition constant for each protein-ligand interaction, Ki, was calculated from the measured total unlabeled ligand producing 50% binding signal inhibition (I50) and the Kd of the protein-label interaction according to a model accounting for receptor-depletion conditions^46.
Fluorescence polarization equilibrium binding assays. Fluorescence polarization-based affinity measurements of designs and their evolved variants were performed as noted previously^47 using Alexa488-conjugated DIG (DIG-PEG3-Alexa488). In a typical experiment, the concentration of DIG-PEG3-Alexa488 was fixed below the Kd of the interaction being monitored and the effect of increasing concentrations of protein on the fluorescence anisotropy of Alexa488 was determined. Fluorescence anisotropy (r) was measured in 96-well plate format on a SpectraMax M5e microplate reader (Molecular Devices) with λex=485 nM and λem=538 nM using a 515 nm emission cutoff filter. In all experiments, PBS (pH 7.4) was used as the buffer system and the temperature was 25° C. DIG-PEG3-Alexa488 solutions were prepared from a 1 mM stock in DMSO. Equilibrium dissociation constants (Kd) were determined by fitting plots of the anisotropy averaged over a period of 20 to 40 min after reaction initiation versus protein concentration as described previously^47. […]

[2] = Yeast surface display flow cytometry binding assay, DIG-RNase-biotin and SAPE; conditions: for compensated mean binding (PE) signal on yeast: 2.7 μM DIG-RNase-biotin pre-incubated with SAPE
Excerpt: (§1) DIG10.1a-derived library DNA was sequenced in paired-end mode on an Illumina MiSeq.
(§2) General experimental methods. Detailed procedures for the syntheses of DIG-BSA-biotin, DIG-RNase-biotin, DIG-PEG3-biotin, and DIG-PEG3-Alexa488, as well as protein expression, purification, and crystallization, cloning, and mutagenesis methods are given in Supplementary Methods. Details about fluorescence polarization binding assays, gel filtration analysis, and protein stability measurements are also provided in Supplementary Methods. Yeast surface display. Designed proteins were tested for binding using yeast-surface display^40. […] DIG binding was assessed by quantifying the phycoerythrin (PE) fluorescence of the displaying yeast population following incubation with DIG-BSA-biotin, DIG-RNase-biotin, or DIG-PEG3-biotin, and streptavidin-phycoerythrin (SAPE). In a typical experiment using DIG-BSA-biotin or DIG-RNase-biotin, cells were resuspended in a premixed solution of PBSF (PBS+1 g/L of BSA) containing a 1:100 dilution of anti-cmyc FITC, […] DIG-BSA-biotin or DIG-RNase biotin, and 664 nM SAPE for 2-4 hr incubation at 4° C. Cellular fluorescence was monitored on an Accuri C6 flow cytometer using a 488 nm laser for excitation and a 575 nm band pass filter for emission. Phycoerythrin fluorescence was compensated to minimize bleed-over contributions from the FITC channel. Competition assays with free digoxigenin were performed as above except that between 750 μM and 1.5 mM of digoxigenin was added to each labeling reaction mixture. Full details are given in Supplementary Methods.
(§3) Yeast surface display assays. Designed proteins were tested for binding using yeast-surface display^23. Designs DIG1-17/pET29FLAG, DigA16/pET29FLAG, and 3hk4/pET29FLAG were subcloned into the NdeI/XhoI cloning sites of pETCON^24. Designs and control proteins in pETCON were transformed into EBY100 cells using lithium acetate and polyethylene glycol^25 with dH2O instead of single stranded carrier DNA and were plated on selective media (C -ura -trp). Freshly transformed cells were inoculated into 1 mL of SDCAA media^23 and grown at 30° C., 200 rpm. After ˜12 hrs, 1e7 cells were collected by centrifugation at 1,700×g for 3 min and resuspended in 1 mL of SGCAA media to induce protein expression. Following induction for 24-48 hrs at 18° C., 4e6 cells were collected by centrifugation, and washed twice by incubation with PBSF (PBS supplemented with […]) for 10 min at room temperature
(§4) DIG binding was assessed by quantifying the phycoerythrin (PE) fluorescence of the displaying yeast population following incubation with DIG-BSA-biotin, DIG-RNase-biotin, or DIG-PEG3-biotin, and streptavidin-phycoerythrin (SAPE; Invitrogen, Carlsbad, Calif.). In a typical experiment using DIG-BSA-biotin or DIG-RNase-biotin. 4e6 cells were resuspended in 50 μL of a premixed solution of PBSF containing a 1:100 dilution of anti-cmyc FITC, 2.66 μM DIG-BSA-biotin or DIG-RNase biotin, and 664 nM SAPE. Following a 2-4 hr incubation at 4° C. in the dark on a rotator, cells were collected by centrifugation at 1,700×g for 3 min and washed with 200 μL of PBSF at 4° C. Cell pellets were resuspended in 200 μL of ice-cold PBSF immediately before use. Cellular fluorescence was monitored on an Accuri C6 flow cytometer using a 488 nm laser for excitation and a 575 nm band pass filter for emission. Phycoerythrin fluorescence was compensated to minimize bleed-over contributions from the FITC fluorescence channel. […]

[3] = Yeast surface display flow cytometry binding assay, DIG-BSA-biotin and SAPE; conditions: for compensated mean binding (PE) signal on yeast: 2.7 μM DIG-BSA-biotin pre-incubated with SAPE; for binding in presence of unlabeled DIG competitor: DIG-BSA or DIG-RNase label, ˜1 mM unlabeled DIG
Excerpt: as §1, §2, §3, §4

[4] = Circular dichroism spectroscopy, temperature melting; assay type: physicochemical
Method: Circular dichroism spectroscopy. Circular dichroism spectra were collected on an Aviv 62A DS spectrometer. Samples were prepared in PBS. Fixed-temperature scans were conducted at 25° C. All proteins were stable <°60 C.

B1: DIG5: computationally designed digoxigenin binding polypeptide from scaffold 1z1s, SEQ ID NO: 10 (protein)
chain: MNAKEILVHSLRLLENGDARGWCDLFHPEGVLEFPYAPPGWKTRFEGRETIWAHMRLHPEHVTVRFTDVQFYETADPDLAIGEYHGDGVVTVSGGKYAADFITVLRTRDGQILLYRVFWNPLRALEAAGGVEAAAKIVQGA
modifications: (130)..(141) amino acids are optionally absent
affinity for DIG-PEG3-Alexa488 by fluorescence polarization (in words) [1]: low to mid micromolar range
compensated mean binding (PE) signal on yeast [2]: strong binding signals
binding (PE) signal in presence of unlabeled DIG competitor ([2]; 2.7 μM DIG-RNase-biotin, 790 μM unlabeled DIG): reduced to that of the negative control ZZ(−)
compensated mean binding (PE) signal on yeast [3]: slightly above background levels
binding in presence of unlabeled DIG competitor [3]: reduced to background levels

B2: DIG10: computationally designed digoxigenin binding polypeptide from scaffold 1z1s, SEQ ID NO: 12 (protein)
chain: MNAKEIVVHSLRLLENGDARGWCDLFHPEGVLEYPYAPPGHKTRFEGRETIWAHMRLFPEYVTVRFTDVQFYETADPDLAIGEFHGDGVHTVSGGKLAADYISVLRTRDGQILLYRVFFNPLRVLEALGGVEAAAKIVQGA
modifications: (130)..(141) amino acids are optionally absent
affinity for DIG-PEG3-Alexa488 by fluorescence polarization (in words) [1]: low to mid micromolar range
compensated mean binding (PE) signal on yeast [2]: strong binding signals
compensated mean binding (PE) signal on yeast [3]: strong binding signals
binding in presence of unlabeled DIG competitor [3]: reduced to background levels

B3: 1z1s: scaffold, hypothetical protein of unknown function from Pseudomonas aeruginosa, SEQ ID NO: 24 (protein)
chain: MNAKEILVHSLRLLENGDARGWCDLFHPEGVLEFPYAPPGWKTRFEGRETIWAHMRLFPEHLTVRFTDVQFYETADPDLAIGEFHGDGVATVSGGKLAQDYISVLRTRDGQILLYRDFWNPLRHLEALGGVEAAAKIVQGA
affinity for DIG-PEG3-Alexa488 by fluorescence polarization (in words) [1]: does not bind
compensated mean binding (PE) signal on yeast [2]: does not show a binding signal
thermal stability by CD temperature melting ([4]; PBS): stable at temperatures below 60 °C
compensated mean binding (PE) signal on yeast [3]: does not bind to either label

B4: DIG10.2: DIG10.1a variant with A37P and H41Y, SEQ ID NO: 14 (protein)
chain: MNAKEIVVHALRLLENGDARGWCDLFHPEGVLEYPYPPPGYKTRFEGRETIWAHMRLFPEYMTIRFTDVQFYETADPDLAIGEFHGDGVHTVSGGKLAADYISVLRTRDGQILLYRLFFNPLRVLEPLGGVEAAAKIVQGA
modifications: (130)..(141) amino acids are optionally absent
thermal stability by CD temperature melting [4]: stable at temperatures below 60 °C

B5: DIG10.1a: affinity matured DIG10 variant with S10A, V62M, V64I, V117L, A127P; SEQ ID NO: 13 (protein)
chain: MNAKEIVVHALRLLENGDARGWCDLFHPEGVLEYPYAPPGHKTRFEGRETIWAHMRLFPEYMTIRFTDVQFYETADPDLAIGEFHGDGVHTVSGGKLAADYISVLRTRDGQILLYRLFFNPLRVLEPLGGVEAAAKIVQGA
modifications: (130)..(141) amino acids are optionally absent
increase of binding affinity relative to DIG10 ([1]; after one round of mutagenesis and selections): 75 fold
binding (PE) signal, stringent multistep labeling ([2]; 5 pM DIG-RNase, then SAPE): slightly higher signal; also recorded: strong binding signals
thermal stability by CD temperature melting [4]: stable at temperatures below 60 °C
